Data reported in patent US20150065381A1.
Where “and” joins values, the source holds several entries; their conditions need not be identical. Equal values may be shown once.

Assays:
[1] = target: HIV-1 envelope of gp160 clone B-Acute-010.c08 (HIV-1); assay: cell-based or functional assay
[2] = target: HIV-1 envelope of gp160 clone AG-010.c14 (HIV-1); assay: cell-based or functional assay
[3] = target: HIV-1 envelope clone G-011.c05 (multiclade gp160 clone panel) (HIV-1); assay: cell-based or functional assay
[4] = target: HIV-1 JRCSF envelope (HIV-1) (UniProt P20871); assay: cell-based or functional assay
[5] = target: HIV-1 envelope of gp160 clone B-Chronic-014.c02 (HIV-1); assay: cell-based or functional assay
[6] = target: HIV-1 envelope of gp160 clone B-Acute-010.c09 (HIV-1); assay: cell-based or functional assay
[7] = target: HIV-1 envelope clone G-011.c02 (multiclade gp160 clone panel) (HIV-1); assay: cell-based or functional assay
[8] = target: HIV-1 envelope of gp160 clone B-Acute-008.c11 (HIV-1); assay: cell-based or functional assay
[9] = target: HIV-1 envelope of gp160 clone B-Acute-009-c08 (HIV-1); assay: cell-based or functional assay
[10] = target: HIV-1 envelope of gp160 clone AG-010.c11 (HIV-1); assay: cell-based or functional assay
[11] = target: HIV-1 16055 envelope (HIV-1); assay: capture ELISA, plate 1, mAb 2.5 ug/ml
[12] = target: HIV-1 envelope of gp160 clone B-Acute-010.c08 (HIV-1); assay: capture ELISA, plate 1, mAb 2.5 ug/ml
[13] = target: HIV-1 envelope of gp160 clone AG-010.c14 (HIV-1); assay: capture ELISA, plate 1, mAb 2.5 ug/ml
[14] = target: HIV-1 envelope clone G-011.c05 (multiclade gp160 clone panel) (HIV-1); assay: capture ELISA, plate 1, mAb 2.5 ug/ml
[15] = target: HIV-1 JRCSF envelope (HIV-1) (UniProt P20871); assay: capture ELISA, plate 1, mAb 2.5 ug/ml
[16] = target: HIV-1 envelope of gp160 clone B-Chronic-014.c02 (HIV-1); assay: capture ELISA, plate 1, mAb 2.5 ug/ml
[17] = target: HIV-1 envelope of gp160 clone B-Acute-010.c09 (HIV-1); assay: capture ELISA, plate 1, mAb 2.5 ug/ml
[18] = target: HIV-1 envelope clone G-011.c02 (multiclade gp160 clone panel) (HIV-1); assay: capture ELISA, plate 1, mAb 2.5 ug/ml
[19] = target: HIV-1 envelope of gp160 clone B-Acute-008.c11 (HIV-1); assay: capture ELISA, plate 1, mAb 2.5 ug/ml
[20] = target: HIV-1 JRFL envelope (HIV-1); assay: capture ELISA, plate 1, mAb 2.5 ug/ml
[21] = target: HIV-1 envelope of gp160 clone B-Acute-009-c08 (HIV-1); assay: capture ELISA, plate 1, mAb 2.5 ug/ml
[22] = target: HIV-1 envelope of gp160 clone AG-010.c11 (HIV-1); assay: capture ELISA, plate 1, mAb 2.5 ug/ml
[23] = target: aMLV envelope (from lysed pseudovirus); assay: antigen capture ELISA, mAb 2.5 ug/ml, plate 2
[24] = target: BG505 envelope (gp120 monomer released from lysed pseudovirus) (HIV-1); assay: antigen capture ELISA, mAb 2.5 ug/ml, plate 2
[25] = target: HIV-1 envelope of gp160 clone B-Acute-010.c08 (HIV-1); assay: capture ELISA, plate 2, mAb 2.5 ug/ml
[26] = target: HIV-1 envelope of gp160 clone AG-010.c14 (HIV-1); assay: capture ELISA, plate 2, mAb 2.5 ug/ml
[27] = target: HIV-1 envelope clone G-011.c05 (multiclade gp160 clone panel) (HIV-1); assay: capture ELISA, plate 2, mAb 2.5 ug/ml
[28] = target: HIV-1 JRCSF envelope (HIV-1) (UniProt P20871); assay: capture ELISA, plate 2, mAb 2.5 ug/ml
[29] = target: HIV-1 envelope of gp160 clone B-Chronic-014.c02 (HIV-1); assay: capture ELISA, plate 2, mAb 2.5 ug/ml
[30] = target: HIV-1 envelope clone G-011.c02 (multiclade gp160 clone panel) (HIV-1); assay: capture ELISA, plate 2, mAb 2.5 ug/ml
[31] = target: HIV-1 JRFL envelope (HIV-1); assay: capture ELISA, plate 2, mAb 2.5 ug/ml
[32] = target: HIV-1 envelope clone BF-002.c05 (multiclade gp160 clone panel) (HIV-1); assay: capture ELISA, plate 1, mAb 2.5 ug/ml
[33] = target: HIV-1 envelope clone F1-002.c11 (multiclade gp160 clone panel) (HIV-1); assay: capture ELISA, plate 1, mAb 2.5 ug/ml
[34] = target: HIV-1 envelope clone BF-002.c08 (multiclade gp160 clone panel) (HIV-1); assay: capture ELISA, plate 1, mAb 2.5 ug/ml
[35] = target: HIV-1 envelope clone F1-002.c16 (multiclade gp160 clone panel) (HIV-1); assay: capture ELISA, plate 1, mAb 2.5 ug/ml
[36] = target: HIV-1 envelope clone BF-002.c05 (multiclade gp160 clone panel) (HIV-1); assay: capture ELISA, plate 2, mAb 2.5 ug/ml
[37] = target: HIV-1 envelope clone F1-002.c11 (multiclade gp160 clone panel) (HIV-1); assay: capture ELISA, plate 2, mAb 2.5 ug/ml
[38] = target: HIV-1 envelope clone BF-002.c08 (multiclade gp160 clone panel) (HIV-1); assay: capture ELISA, plate 2, mAb 2.5 ug/ml
[39] = target: HIV-1 envelope clone F1-002.c16 (multiclade gp160 clone panel) (HIV-1); assay: capture ELISA, plate 2, mAb 2.5 ug/ml

PG9 (antibody)
PG9 IC50 [1]: 0.147 mg/L
PG9 IC50 [2]: 0.035 mg/L
PG9 IC50 [3]: 0.098 mg/L
PG9 IC50 [4]: 0.002 mg/L
PG9 IC50 [5]: 0.039 mg/L
PG9 IC50 [6]: 22.2 mg/L
PG9 IC50 [7]: > 50 mg/L
PG9 IC50 [8]: 0.396 mg/L
PG9 IC50 [9]: 0.288 mg/L
PG9 IC50 [10]: 0.104 mg/L
ELISA OD [11]: 0.364 OD and 0.308 OD
ELISA OD [12]: 0.313 OD
ELISA OD [13]: 0.988 OD
ELISA OD [14]: 0.308 OD
ELISA OD [15]: 0.356 OD and 0.338 OD
ELISA OD [16]: 1.79 OD
ELISA OD [17]: 0.133 OD
ELISA OD [18]: 0.068 OD
ELISA OD [19]: 0.281 OD
ELISA OD [20]: 0.068 OD and 0.077 OD
ELISA OD [21]: 0.095 OD
ELISA OD [22]: 0.759 OD
ELISA OD [23]: 0.059 OD and 0.053 OD
ELISA OD [24]: 0.346 OD
ELISA OD [25]: 0.278 OD
ELISA OD [26]: 0.834 OD
ELISA OD [27]: 0.161 OD
ELISA OD [28]: 0.177 OD and 0.186 OD
ELISA OD [29]: 0.986 OD
ELISA OD [30]: 0.052 OD
ELISA OD [31]: 0.058 OD and 0.051 OD

PG16 (antibody)
PG16 [1]: 0.015 µg/mL
PG16 [2]: 0.007 µg/mL
PG16 [3]: 0.024 µg/mL
PG16 [4]: 0 µg/mL
PG16 [5]: 0.037 µg/mL
PG16 [6]: 1.21 µg/mL
PG16 [7]: > 50 µg/mL
PG16 [8]: 5.3 µg/mL
PG16 [9]: 0.202 µg/mL
PG16 [10]: 0.031 µg/mL
ELISA OD [32]: 0.639 OD
ELISA OD [11]: 0.185 OD and 0.131 OD
ELISA OD [12]: 0.186 OD
ELISA OD [13]: 0.485 OD
ELISA OD [33]: 0.142 OD
ELISA OD [14]: 0.126 OD
ELISA OD [34]: 0.146 OD
ELISA OD [15]: 0.206 OD and 0.164 OD
ELISA OD [16]: 0.398 OD
ELISA OD [17]: 0.124 OD
ELISA OD [35]: 0.129 OD
ELISA OD [18]: 0.065 OD
ELISA OD [19]: 0.189 OD
ELISA OD [20]: 0.085 OD and 0.088 OD
ELISA OD [21]: 0.074 OD
ELISA OD [22]: 0.216 OD
ELISA OD [23]: 0.067 OD and 0.069 OD
ELISA OD [24]: 0.103 OD
ELISA OD [36]: 0.927 OD
ELISA OD [25]: 0.171 OD
ELISA OD [26]: 0.686 OD
ELISA OD [37]: 0.121 OD
ELISA OD [27]: 0.126 OD
ELISA OD [38]: 0.108 OD
ELISA OD [28]: 0.172 OD and 0.21 OD
ELISA OD [29]: 0.374 OD
ELISA OD [39]: 0.349 OD
ELISA OD [30]: 0.07 OD

PGT151 (antibody)
ELISA OD [32]: 0.148 OD
ELISA OD [11]: 0.091 OD and 0.061 OD
ELISA OD [12]: 0.243 OD
ELISA OD [13]: 0.164 OD
ELISA OD [33]: 0.063 OD
ELISA OD [14]: 0.073 OD
ELISA OD [34]: 0.062 OD
ELISA OD [15]: 0.087 OD and 0.063 OD
ELISA OD [16]: 0.206 OD
ELISA OD [17]: 0.06 OD
ELISA OD [35]: 0.081 OD
ELISA OD [18]: 0.067 OD
ELISA OD [19]: 0.152 OD
ELISA OD [20]: 0.078 OD and 0.06 OD
ELISA OD [21]: 0.076 OD
ELISA OD [22]: 0.062 OD
ELISA OD [23]: 0.075 OD and 0.104 OD
ELISA OD [24]: 0.063 OD
ELISA OD [36]: 0.174 OD
ELISA OD [25]: 0.148 OD
ELISA OD [26]: 0.149 OD
ELISA OD [37]: 0.115 OD
ELISA OD [27]: 0.086 OD
ELISA OD [38]: 0.067 OD
ELISA OD [28]: 0.078 OD and 0.068 OD
ELISA OD [29]: 0.203 OD
ELISA OD [39]: 0.114 OD
ELISA OD [30]: 0.113 OD
ELISA OD [31]: 0.098 OD and 0.072 OD

PGV04 (antibody)
ELISA OD [32]: 4 OD
ELISA OD [12]: 1.34 OD
ELISA OD [13]: 0.241 OD
ELISA OD [33]: 0.145 OD
ELISA OD [14]: 0.256 OD
ELISA OD [34]: 2.2 OD
ELISA OD [15]: 1.53 OD and 1.78 OD
ELISA OD [16]: 4 OD
ELISA OD [17]: 1.73 OD
ELISA OD [35]: 0.242 OD
ELISA OD [18]: 0.601 OD
ELISA OD [19]: 0.059 OD
ELISA OD [21]: 0.123 OD
ELISA OD [22]: 0.136 OD
ELISA OD [23]: 0.085 OD and 0.089 OD
ELISA OD [24]: 1.04 OD
ELISA OD [36]: 4 OD
ELISA OD [25]: 1.57 OD
ELISA OD [26]: 0.283 OD
ELISA OD [37]: 0.156 OD
ELISA OD [27]: 0.288 OD
ELISA OD [38]: 2.79 OD
ELISA OD [28]: 1.87 OD and 2.17 OD
ELISA OD [29]: 4 OD
ELISA OD [39]: 0.303 OD
ELISA OD [30]: 0.712 OD
